# Patent publication US20220249649A1 (ECOLE POLYTECHNIQUE FEDERALE DE LAUSANNE, published 2022)
# B1: prefusion stabilized RSVF (sc9-10 DS-Cav1 A149C Y458C S46G E92D S215P K465Q variant, DS2) (other)
# chain: QNITEEFYQSTCSAVSKGYLGALRTGWYTSVITIELSNIKENKCNGTDAKVKLIKQELDKYKNAVTDLQLLMQSTPPTNNGSGSAICSGVAVCKVLHLEGEVNKIKSALLSTNKAVVSLSNGVSVLTFKVLDLKNYIDKQLLPILNKQSCSIPNIETVIEFQQKNNRLLEITREFSVNAGVTTPVSTYMLTNSELLSLINDMPITNDQKKLMSNNVQIVRQQSYSIMCIIKEEVLAYVVQLPLYGVIDTPCWKLHTSPLCTTNTKEGSNICLTRTDRGWYCDNAGSVSFFPQAETCKVQSNRVFCDTMNSLTLPSEINLCNVDIFNPKYDCKIMTSKTDVSSSVITSLGAIVSCYGKTKCTASNKNRGIIKTFSNGCDYVSNKGMDTVSVGNTLYCVNKQEGQSLYVKGEPIINFYDPLVFPSDEFDASISQVNEKINQSLAFIRKSDELL
# notes: also called preRSVF; prefusion RSVF
# Biological target: T1, D25 antibody (IgG)
# T1 construct: RSVF site 0 neutralising antibody, human IgG1 vector; The IgG was immobilised on the SPR chip; PDB 4JHW is cited; also called nAb D25
# Assay: not stated (comparison value, FIG. 18 cited)
binder,measurement,value
B1,Kd,150 µM
